Here are results for one molecule from patent US20190389966A1 (Regeneron, published 2019).

This assay deals with T1, MUC16 on OVCAR-3 cells (human, UniProt Q8WXI7 1-14507).
T1 construct: whole, on cells; also called Mucin 16
Description: FACS binding to OVCAR-3 cells. Background: In flow cytometry, cells or beads pass a laser one at a time.

B1: BSMUC16/CD3-001 (bispecific antibody, V domains shown)
VH 1: QVQLVESGGGLVKPGGSLRLSCAASGFTFSNYYMSWVRQAPGKGLEWISYISGRGSTIFYADSVKGRITISRDNAKNSLFLQMNSLRAEDTAVYFCVKDRGGYSPYWGQGTLVTVSS
VH 2: EVQLVESGGGLVQPGRSLRLSCAASGFTFDDYSMHWVRQAPGKGLEWVSGISWNSGSKGYADSVKGRFTISRDNAKNSLYLQMNSLRAEDTALYYCAKYGSGYGKFYHYGLDVWGQGTTVTVSS
VL: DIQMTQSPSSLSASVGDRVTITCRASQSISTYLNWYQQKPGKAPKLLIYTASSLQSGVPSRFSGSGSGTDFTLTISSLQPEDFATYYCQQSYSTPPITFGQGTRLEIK
notes: It was biotinylated in the ELISA and DFO/89Zr-labelled at Gln 295 for PET; also called anti-MUC16xCD3 bispecific antibody; BSMUC16/CD3-0001
Regarding B1, the binding result is “binds”.
